{"source": "patent US9200265B2", "about": "“Anti-cocaine compositions and treatment” (priority 2006, dated 2015)", "molecules": {"B1": {"name": "Ala328W/Y332A: cocaine hydrolyzing enzyme of Sun et al., 2002a (genetically engineered BChE) (protein, UniProt P06276 29-602, looked up, variant A328W Y332A)", "Cholinesterase": "EDDIIIATKNGKVRGMNLTVFGGTVTAFLGIPYAQPPLGRLRFKKPQSLTKWSDIWNATKYANSCCQNIDQSFPGFHGSEMWNPNTDLSEDCLYLNVWIPAPKPKNATVLIWIYGGGFQTGTSSLHVYDGKFLARVERVIVVSMNYRVGALGFLALPGNPEAPGNMGLFDQQLALQWVQKNIAAFGGNPKSVTLFGESAGAASVSLHLLSPGSHSLFTRAILQSGSFNAPWAVTSLYEARNRTLNLAKLTGCSRENETEIIKCLRNKDPQEILLNEAFVVPYGTPLSVNFGPTVDGDFLTDMPDILLELGQFKKTQILVGVNKDEGTWFLVAGAPGFSKDNNSIITRKEFQEGLKIFFPGVSEFGKESILFHYTDWVDDQRPENYREALGDVVGDYNFICPALEFTKKFSEWGNNAFFYYFEHRSSKLPWPEWMGVMHGYEIEFVFGLPLERRDNYTKAEEILSRSIVKRWANFAKYGNPNETQNNSTSWPVFKSTEQKYLTLNTESTRIMTKLRAQQCRFWTSFFPKVLEMTGNIDEAEWEWKAGFHRWNNYMMDWKNQFNDYTSKKESCVGL"}, "B2": {"name": "T172R: mutant CocE polypeptide, SEQ ID NO: 25 (protein)", "chain": "MVDGNYSVASNVMVPMRDGVRLAVDLYRPDADGPVPVLLVRNPYDKFDVFAWSTQSTNWLEFVRDGYAVVIQDTRGLFASEGEFVPHVDDEADAEDTLSWILEQAWCDGNVGMFGVSYLGVTQWQAAVSGVGGLKAIAPSMASADLYRAPWYGPGGALSVEALLGWSALIGRGLITSRSDARPEDAADFVQLAAILNDVAGAASVTPLAEQPLLGRLIPWVIDQVVDHPDNDESWQSISLFERLGGLATPALITAGWYDGFVGESLRTFVAVKDNADARLVVGPWSHSNLTGRNADRKFGIAATYPIQEATTMHKAFFDRHLRGETDALAGVPKVRLFVMGIDEWRDETDWPLPDTAYTPFYLGGSGAANTSTGGGTLSTSISGTESADTYLYDPADPVPSLGGTLLFHNGDNGPADQRPIHDRDDVLCYSTEVLTDPVEVTGTVSARLFVSSSAVDTDFTAKLVDVFPDGRAIALCDGIVRMRYRETLVNPTLIEAGEIYEVAIDMLATSNVFLPGHRIMVQVSSSNFPKYDRNSNTGGVIAREQLEEMCTAVNRIHRGPEHPSHIVLPIIKR", "modifications": "Mutant CocE polypeptide"}, "B3": {"name": "T172R/G173Q (protein, UniProt Q9L9D7 1-574, looked up, variant T172R G173Q)", "Cocaine esterase": "B2 chain with G173Q"}, "B4": {"name": "S159A (protein)", "chain": "B2 chain with S159A, R172T", "modifications": "Mutant CocE polypeptide"}, "B5": {"name": "T172R/A193D: mutant CocE polypeptide (protein, UniProt Q9L9D7 1-574, looked up, variant T172R A193D)", "Cocaine esterase": "B2 chain with A193D"}, "B6": {"name": "T172R-F189K (protein, UniProt Q9L9D7 1-574, looked up, variant T172R F189K)", "Cocaine esterase": "B2 chain with F189K"}}, "key": {"CocE [1]": {"target": "T1, CocE (Rhodococcus sp., UniProt Q9L9D7)", "T1 construct": "generating a full-length CocE gene encoding the T172R mutation; His6 (C); made in house; host or cells: E. coli (pET-22b(+))", "assay": "Stabilization against 37° C.-induced formation of high molecular weight CocE aggregates (gel)", "type": "physicochemical, Rhodococcus sp. MB 1", "details": "for 37° C.-induced formation of high molecular weight CocE aggregates: 0.1 mg/ml enzyme, mM range", "method": "(§1) Plasmids containing the mutations were transformed into E. coli BL21 cells and IPTG-induced enzyme was purified on Ni-Agarose. Expressed proteins were then tested for enzymatic activity and for thermostability at 37° C. Enzyme activity was measured using the spectrophotometric assay as described in Example 1. Thermostability was also tested via the spectrophotometric assay by pre-incubation of both wild-type and mutants at 37° C. for various times. Additionally, the nature of the thermo-instability of both the wild-type and T172R mutant was analyzed by polyacrylamide gel electrophoresis under denaturing and non-denaturing conditions. Briefly, mutant and wild-type enzyme at 0.1 mg/ml were incubated at 37° C. for various time-points, cooled to 4° C., mixed with SDS-loading dye containing-mercaptoethanol and run on 10% SDS-PAGE gels (denaturing conditions) or run on native 10% polyacrylamide gels (non-denaturing conditions) at 4° C. Gels were fixed with 10% methanol, 7% acetic acid for 30 minutes, and then stained with Sypro-Ruby protein gel stain (Molecular Probes, Invitrogen) for 3 hours. Protein staining was visualized under UV-light using an AlphaImager™ 3400 (Alpha Innotech). Finally, the exact melting temperature of both the wild-type and T172R mutant were determined by circular dichroism using a JASCO-810 spectropolarimeter driven by a JASCO V500/FP-750 analysis program for Windows. The CD spectra were measured in millidegrees and normalized against PBS buffer.\nCocaine esterase (CocE) cleaves cocaine to produce Benzoic acid and Ecgonine methyl ester. Briefly, alternative substrates and inhibitors of cocaine, as well as compounds able to thermostabilize the enzyme, were investigated generally by substituting amide and thiol analogues at the reactive ester bond, or removing the bond (for inhibitors), substituting benzoyl analogues in place of the benzoic acid leaving group, and/or removing or altering the methyl-ester group on the ecgonine portion of the molecule. As discussed below, it was determined that some substrates, products, and inhibitors stabilized thermal denaturation of wild type CocE, as well as prevented thermally-induced aggregation in gel electrophoresis.\nCocaine is the natural substrate of Cocaine esterase (CocE). Cocaine cleavage was monitored by a drop in absorbance at 240 nm. Cocaine (mM range) prevented 37° C.-induced formation of high molecular weight CocE aggregates (0.1 mg/ml enzyme concentrations) (see, e.g., FIG. 33). Cocaine (uM quantities) stabilized 37° C.-induced activity loss (see, e.g., FIG. 34), although the mechanism of this stabilization is complicated due to substrate inhibition at higher concentrations."}, "CocE [2]": {"target": "T1, CocE", "assay": "Inhibition of CocE (cleavage of 4-nitrophenyl acetate)", "type": "biochemical, Rhodococcus sp. MB 1", "method": "Benzoic acid prevented 37° C.-induced formation of high molecular weight CocE aggregates (0.1 mg/ml enzyme concentrations) (see, e.g., FIG. 35). Benzoic acid (uM quantities) stabilized 37° C.-induced activity loss (see, e.g., FIG. 36), although the mechanism of this stabilization is complicated due to substrate inhibition at higher concentrations.\nCocE catalyzes the cleavage of 4-nitrophenyl acetate (4NPA) to 4-nitrophenol (4NP) and acetate. The cleavage reaction was monitored by observation of product formation at 400 nm. Both 4NP and 4NPA (mM range) prevented 37° C.-induced formation of high molecular weight CocE aggregates (0.1 mg/ml enzyme concentrations)."}, "[3]": {"test_system": "WIN 35065-2 induced toxicity", "assay": "WIN 35065-2 induced lethality in rats", "details": "i.p., rats"}, "[4]": {"details": "against (-) cocaine; cited from earlier work"}, "[5]": {"assay": "Non-denaturing polyacrylamide gel electrophoresis after incubation at 37° C. (aggregation)", "type": "physicochemical", "details": "non-denaturing gels, 0.1 mg/ml", "method": "as §1, with “Protein staining was visualized under UV-light using an AlphaImager™ 3400 (Alpha Innotech).” left out"}, "[6]": {"assay": "Low-UV CD spectra melt with CCA deconvolution", "type": "physicochemical", "details": "for #3 formation: accumulation of the fully melted protein; for #2 formation: formation of the intermediate state; for #1 melt: initial spectra melts, 0.2 mg/ml; for #2 melt: melt of the intermediate state", "method": "Low-UV CD spectra data were obtained using an Aviv Spectropolarimeter Mode 400, with the help of Norma Greenfield, UMDNJ, using a 5-cell holder and 0.2 mg/ml protein concentrations. Raw data values obtained were blanked on control PBS, smoothed, and deconvoluted using the CCA algorithm as described by A. Perczel, K. Park, and G. D. Fasman, [Analysis of the circular dichroism spectrum of proteins using the convex constraint algorithm: a practical guide. Analytical Biochemistry 203, 83-93 (1992).] This algorithm finds the minimum number of curves needed to reconstruct a data set, and expresses the percentage each curve contributes to the data set as a function of temperature.\nBelow is presented a low UV CCA denconvolution analysis of CocE WT and 4 mutants, obtained in a single CD spectra melt using a 5-cell holder. The experiment was performed over the period of 8 hours, from 0-80° C.\nTemperature dependent melting was observed between the wavelengths tested (200-250 nm), and the smoothed spectra for each mutant are shown in FIG. 29. […] Dose response analysis was used to approximate the temperature at which the initial spectra melts (1), the formation and melt of the intermediate state (2), and the accumulation of the fully melted protein (3)."}, "[7]": {"test_system": "cocaine-induced lethality", "assay": "Rodent model of acute cocaine toxicity (convulsions and lethality) in rats"}, "[8]": {"assay": "Cocaine spectrophotometric assay (240 nm), Michaelis-Menten kinetics"}, "[9]": {"assay": "Melting temperature by circular dichroism (near-UV)", "type": "physicochemical", "method": "as §1"}}, "note": "Positions count from the first letter of the chain named. Names may count otherwise. “And” between values parts separate entries of the source, which are not always exact repeats. Identical values can stand only once. Like-named read-outs stand apart in the source and are kept apart here."}
{"molecule": "O=[N+]([O-])c1ccc(O)cc1", "note": "[4NP, 4-nitrophenol]", "values": [{"measurement": "37° C.-induced formation of high molecular weight CocE aggregates", "setting": "CocE [1]", "result": "prevented"}]}
{"molecule": "CC(=O)Oc1ccc([N+](=O)[O-])cc1", "note": "[4NPA, 4-nitrophenyl acetate]", "values": [{"measurement": "37° C.-induced formation of high molecular weight CocE aggregates", "setting": "CocE [1]", "result": "prevented"}]}
{"molecule": "OB(O)c1ccccc1", "note": "[Phenylboronic acid]", "values": [{"measurement": "Ki", "setting": "CocE [2]", "result": 250, "unit": "nM"}, {"measurement": "EC50", "setting": "CocE [1]", "result": 200, "unit": "nM"}]}
{"molecule": "COC(=O)[C@H]1[C@@H](c2ccccc2)C[C@@H]2CC[C@H]1N2C", "note": "[WIN-35065-2, reference compound]", "values": [{"measurement": "LD100", "setting": "[3]", "result": 560, "unit": "mg/kg"}]}
{"molecule": "B1", "values": [{"measurement": "Kcat", "setting": "[4]", "result": 2.57, "unit": "s⁻¹"}, {"measurement": "Km", "setting": "[4]", "result": 18, "unit": "µM"}]}
{"molecule": "B2", "values": [{"measurement": "half-life at 37° C. relative to the wildtype", "setting": "[5]", "result": "~8", "unit": "×"}, {"measurement": "#3 formation", "setting": "[6]", "result": 56.85, "unit": "°C"}, {"measurement": "#2 formation", "setting": "[6]", "result": 38.11, "unit": "°C"}, {"measurement": "#1 melt", "setting": "[6]", "result": 39.22, "unit": "°C"}, {"measurement": "#2 melt", "setting": "[6]", "result": 54.56, "unit": "°C"}, {"measurement": "duration of prophylactic effects", "setting": "[7]; 0.32 mg given 1, 10, 30, 60 minutes before 320 mg/kg cocaine", "result": "longer lasting than the wild-type CocE"}, {"measurement": "lethality", "setting": "[7]; 0.32 mg i.v. one minute after 1 g/kg cocaine i.p., rats", "result": "about 70%"}, {"measurement": "Km", "setting": "[8]; 40 min @ 37° C.", "result": 78.8, "unit": "µM"}, {"measurement": "Km", "setting": "[8]; no preincubation", "result": 88.2, "unit": "µM"}, {"measurement": "increased melting temperature compared to the wild-type CocE", "setting": "[9]", "result": 5, "unit": "degrees"}, {"measurement": "detectable denaturation beginning", "setting": "[9]; near-UV CD", "result": "approximately 28 °C"}, {"measurement": "melting temperature", "setting": "[9]; near-UV CD (260-320 nm), curve-fitting", "result": 41.43, "unit": "°C"}]}
{"molecule": "B3", "values": [{"measurement": "#3 formation", "setting": "[6]", "result": "56 °C and 56.61 °C"}, {"measurement": "#2 formation", "setting": "[6]", "result": 45.61, "unit": "°C"}, {"measurement": "#1 melt", "setting": "[6]", "result": "40 °C and 40.62 °C"}, {"measurement": "#2 melt", "setting": "[6]", "result": "46 °C and 46.17 °C"}]}
{"molecule": "B4", "values": [{"measurement": "Km", "setting": "[8]; 40 min @ 37° C.", "result": 15.7, "unit": "µM"}, {"measurement": "Km", "setting": "[8]; no preincubation", "result": 43.6, "unit": "µM"}]}
{"molecule": "B5", "values": [{"measurement": "#3 formation", "setting": "[6]", "result": 58.72, "unit": "°C"}, {"measurement": "#2 formation", "setting": "[6]", "result": 46.47, "unit": "°C"}, {"measurement": "#1 melt", "setting": "[6]", "result": 38.11, "unit": "°C"}, {"measurement": "#2 melt", "setting": "[6]", "result": 47.68, "unit": "°C"}]}
{"molecule": "B6", "values": [{"measurement": "#3 formation", "setting": "[6]", "result": 57.23, "unit": "°C"}, {"measurement": "#2 formation", "setting": "[6]", "result": 46.81, "unit": "°C"}, {"measurement": "#1 melt", "setting": "[6]", "result": 38.8, "unit": "°C"}, {"measurement": "#2 melt", "setting": "[6]", "result": 48.42, "unit": "°C"}]}
